From PMC12744356

Target: EsxX glycine zipper peptide (EsxX 448-476), N-terminal biotin (Staphylococcus aureus (ST398))
Assay: BLI; biotinylated peptide captured on streptavidin SAX biosensors (~1.0 nm); ExiABhis 50 uM to 1.6 uM in 2-fold dilutions in 10X Kinetics Buffer; association 180 s at 25 C; 1:1 kinetic model and steady-state model

ExiA-ExiBhis dimer (complex)
Kd: 22 µM | stoichiometry N: 1
